Test results as given in article PMC7203109.

How the values were obtained:
[1] = test system: FLAG-ATRX-HA (full-length hATRX) (Homo sapiens); test: pull-down qPCR; conditions: 2 ug protein; Pull-down: 2 mM MgCl2, 100 U/ml RNase inhibitor, 0.1 mg/ml yeast tRNA, 0.05% BSA, 0.2% NP-40, 4 °C overnight, washes 150 and 15 mM NaCl; EMSA: 50 mM Tris pH …
[2] = test system: FLAG-ATRXΔRBR-HA (Homo sapiens); test: pull-down qPCR; conditions: 2 ug protein; Pull-down: 2 mM MgCl2, 100 U/ml RNase inhibitor, 0.1 mg/ml yeast tRNA, 0.05% BSA, 0.2% NP-40, 4 °C overnight, washes 150 and 15 mM NaCl; EMSA: 50 mM Tris pH …
[3] = test system: GST-RBR (ATRX RNA binding region) (Homo sapiens); test: pull-down qPCR; conditions: 2 ug protein; Pull-down: 2 mM MgCl2, 100 U/ml RNase inhibitor, 0.1 mg/ml yeast tRNA, 0.05% BSA, 0.2% NP-40, 4 °C overnight, washes 150 and 15 mM NaCl; EMSA: 50 mM Tris pH …
[4] = test system: FLAG-ATRX-HA (full-length hATRX) (Homo sapiens); test: EMSA; conditions: 5 mM Mg2+, yeast tRNA competitor; citation to ref 11 stands next to the value; Pull-down: 2 mM MgCl2, 100 U/ml RNase inhibitor, 0.1 mg/ml yeast tRNA, 0.05% BSA, 0.2% NP-40, 4 °C overnight, washes 150 and 15 mM NaCl; EMSA: 50 mM Tris pH …
[5] = test system: FLAG-ATRX-HA (full-length hATRX) (Homo sapiens); test: pull-down RT-qPCR; conditions: 2 ug protein, Pull-down: 2 mM MgCl2, 100 U/ml RNase inhibitor, 0.1 mg/ml yeast tRNA, 0.05% BSA, 0.2% NP-40, 4 °C overnight, washes 150 and 15 mM NaCl, EMSA: 50 mM Tris pH …
[6] = test system: FLAG-ATRX helicase domain (F6); test: pull-down RT-qPCR; conditions: 25 pmol protein; binds, less than GST-RBR; Pull-down: 2 mM MgCl2, 100 U/ml RNase inhibitor, 0.1 mg/ml yeast tRNA, 0.05% BSA, 0.2% NP-40, 4 °C overnight, washes 150 and 15 mM NaCl; EMSA: 50 mM Tris pH …
[7] = test system: FLAG-ATRXΔRBR-HA (Homo sapiens); test: pull-down RT-qPCR; conditions: 2 ug protein, yeast tRNA; Pull-down: 2 mM MgCl2, 100 U/ml RNase inhibitor, 0.1 mg/ml yeast tRNA, 0.05% BSA, 0.2% NP-40, 4 °C overnight, washes 150 and 15 mM NaCl; EMSA: 50 mM Tris pH …
[8] = test system: GST-RBR (ATRX RNA binding region) (Homo sapiens); test: pull-down RT-qPCR; conditions: Pull-down: 2 mM MgCl2, 100 U/ml RNase inhibitor, 0.1 mg/ml yeast tRNA, 0.05% BSA, 0.2% NP-40, 4 °C overnight, washes 150 and 15 mM NaCl, EMSA: 50 mM Tris pH …
[9] = test system: GST-RBR (ATRX RNA binding region) (Homo sapiens); test: competition pull-down RT-qPCR; conditions: Pull-down: 2 mM MgCl2, 100 U/ml RNase inhibitor, 0.1 mg/ml yeast tRNA, 0.05% BSA, 0.2% NP-40, 4 °C overnight

Substance	binding signal [1] [% input]	binding signal [2] [% input]	binding signal [3] [% input]	binding signal ([8]; 0.5 ug protein) [% input]	binding signal ([8]; 1 ug protein) [% input]	binding signal ([8]; 2 ug protein, yeast tRNA) [% input]	binding signal ([8]; 2 ug protein) [% input]	binding signal ([8]; 3 ug protein) [% input]	also measured
MBP DNA, 300 bp	0.197	0.185	0.000184						
Xist Repeat A RNA, 192-nt fragment									Kd [4]: 0.0179 µM
Xist Repeat A RNA, 435 nt				0.342	1.99	3.08	2.92	9.29	binding signal ([5]; yeast tRNA): 8 % input; binding signal [6]: 0.741 % input; binding signal [7]: 3.43 % input; binding signal ([8]; 25 pmol protein): 1.8 % input; binding signal ([9]; mixed with 5 ug MBP RNA, washes 150 and 15 mM …, EMSA: 50 mM Tris pH 8.0): 3.04 % input
MBP RNA, 300 nt				0.142	0.189	0.974	0.183	0.22	binding signal [5]: 1.28 % input; binding signal ([9]; mixed with 5 ug Repeat A RNA, washes 150 and 15 mM NaCl, EMSA: 50 mM Tris pH …): 0.0666 % input
Xist Repeat A DNA, 435 bp	0.478	0.23	0.002						
